Laboratory results published in article PMC9860126, “Mechanistic insights into the nickel-dependent allosteric response of the Helicobacter pylori NikR transcription factor”.

What was measured:
HpNikR Δ3aa = HpNikR Δ3aa (Helicobacter pylori G27, UniProt A1YSQ9 1-58+62-148, internal_change); assay: fluorescence anisotropy; Ni(II)-bound; FA: 5 nM DNA, 20 mM Tris pH 7.6, 100 mM NaCl, 3 mM MgSO4, temperature not stated (Ni loading 1.2 eq NiSO4 per monomer at RT). EMSA: 20 mM Tris pH 7.5, 100 mM KCl, 3 mM MgCl2, 0.1% IGEPAL, 5% glycerol, 0.1 mg/ml herring sperm DNA, RT; gel with 800 uM NiSO4 at 4 C; details: protein: recombinant; tags: none stated; chain copies: 4; label: fluorescein on internal thymine (T14 of strand 1); blunt
HpNikR I127A = HpNikR I127A (Helicobacter pylori G27, UniProt A1YSQ9 1-148, I127A); assay: as above; details: protein: recombinant; tags: none stated; chain copies: 4; label: fluorescein on internal thymine (T14 of strand 1); blunt

B1: ureA promoter 32 bp (FA) (dsDNA)
DNA 1: ATATAACACTAATTCATTTTAAATAATAATTA
DNA 2: TAATTATTATTTAAAATGAATTAGTGTTATAT
Kd (HpNikR Δ3aa): 4.4 ± 1.3 nM
Kd (HpNikR I127A): 8.7 ± 1.3 nM
